For data set [1], the target named is Vivid (VVD) truncated at the N-terminus by 36 residues, with an N-terminal 6xHis tag (Neurospora crassa) (UniProt Q9C3Y6).
Data set [2] concerns the molecule itself. Kind of data set: SDS-PAGE and Western blot of the aggregated pellet; purified VVD36 given a 5-min blue-light pulse, kept 24 h at 25°C in standard buffer (10% glycerol, 50 mM HEPES, 150 mM NaCl, 20 mM imidazole, pH 8), centrifuged; pellet run on SDS-PAGE and blotted against the 6xHis tag; with DTT present oligomer formation was limited.

In turn, “catalase from Aspergillus niger (from UniProt P55303 1-730) (enzyme)” gave a photoadduct mean lifetime of VVD with A. niger catalase at 2.34 uM (optical absorbance) in data set [1] of 1100 s.

B1: Vivid (VVD) truncated at the N-terminus by 36 residues, with an N-terminal 6xHis tag (domain or fragment, Neurospora crassa, UniProt Q9C3Y6 37-186, looked up)
chain: HTLYAPGGYDIMGYLIQIMNRPNPQVELGPVDTSCALILCDLKQKDTPIVYASEAFLYMTGYSNAEVLGRNCRFLQSPDGMVKPKSTRKYVDSNTINTMRKAIDRNAEVQVEVVNFKKNGQRFVNFLTMIPVRDETGEYRYSMGFQCETE
notes: Vivid (VVD), LOV photoreceptor of Neurospora crassa, wild type, first 36 amino acids deleted (VVD36); The plasmid came from B. R. Crane; The sample carries some self-oxidative damage (oxidised D82, Y87, F92, F159, N161 found in the aggregated pellet); also called VVD36; dark-VVD; not shown: His6, N-terminal, kept
Consider B1, for which the binding result in data set [2] is recorded as “binds”.

These data come from PMC6054393, “Light induces oxidative damage and protein stability in the fungal photoreceptor Vivid” (PLoS ONE, 2018).
